According to PMC12673129, “A GPER-PKA-Centrin axis regulates centrosome numbers and centriole integrity in colon cancer cells” (Communications Biology, 2025):

Target: catalytic subunit α of PKA (PKA-Cα) (human (endogenous in HCT116 and HCT-15), UniProt P17612 1-351)
Test: co-IP; immunoprecipitation with anti-PKA Cα (4782, Cell Signaling) and protein-G Sepharose from 2 mg HCT116 lysate, 2 h at 4 °C, IP lysis buffer (50 mM tris/HCl pH 7.4, 150 mM NaCl, 0,25% NP-40); cells mitotically arrested (2 µM dimethylenastron, 16 h) or asynchronous with DMSO, E2, BPA, DES or G-1 for 48 h; Western blot, Centrin-pS170 band normalised to precipitated PKA Cα
Settings: partners not purified

fold increase of co-precipitated Centrin-pS170 (normalised to PKA-Cα) with BPA, relative to DMSO: 1.8 fold | fold increase of co-precipitated Centrin-pS170 (normalised to PKA-Cα) with DES, relative to DMSO: 1.6 fold | fold increase of co-precipitated Centrin-pS170 (normalised to PKA-Cα) with E2, relative to DMSO: 1.4 fold
B1: Centrin-2 phosphorylated at serine 170 (Centrin-2-pS170) (natural protein, human (endogenous in HCT116 and HCT-15), UniProt P41208 1-172, looked up)
chain: MASNFKKANMASSSQRKRMSPKPELTEEQKQEIREAFDLFDADGTGTIDVKELKVAMRALGFEPKKEEIKKMISEIDKEGTGKMNFGDFLTVMTQKMSEKDTKEEILKAFKLFDDDETGKISFKNLKRVAKELGENLTDEELQEMIDEADRDGDGEVSEQEFLRIMKKTSLY
modifications: phosphoserine at 170
notes: Centrin-2, human, endogenous, the form phosphorylated at S170 as detected by the anti-Centrin-2-pS170 antibody (raised against Cys-LRIMKKT(pS)LY172); NM_004344.3 is printed for the Centrin wild-type expression vector, not for the endogenous protein of the co-IP; also called Centrin-pS170; phosphorylated Centrin-2; source: endogenous, HCT116 and HCT-15 lysates
